Measured values: patent US20230391888A1 (Sanofi, published 2023)

T1: human CD123-Fc-His fusion protein (internal source) (human, UniProt P26951 19-305)
T1 construct: not shown: Fc and His tag
T1 sequence (looked up): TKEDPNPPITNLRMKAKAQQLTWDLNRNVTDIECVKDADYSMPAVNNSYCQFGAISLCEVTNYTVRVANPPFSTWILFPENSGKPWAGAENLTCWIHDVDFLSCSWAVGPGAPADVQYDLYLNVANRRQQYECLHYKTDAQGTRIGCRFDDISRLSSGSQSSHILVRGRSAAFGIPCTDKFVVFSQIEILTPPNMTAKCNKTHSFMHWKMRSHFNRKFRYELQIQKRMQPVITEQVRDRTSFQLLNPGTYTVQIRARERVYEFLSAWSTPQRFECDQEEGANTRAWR

B1: anti-CD3ε × anti-CD123-dsTrasKO2 (ID 34) (bispecific antibody)
light 1: not shown
heavy 1: not shown
heavy 2: EVQLQQSGPELVKPGASVKMSCKASGYTFTDYYMKWVKQSHGKSLEWIGDIIPSNGATFYNQKFKGKATLTVDRSSSTAYMHLNSLTSEDSAVYYCTRSHLLRASWFAYWGQGTLVTVSAGGGGSGGGGSEVQLVESGGGLVQPGGSLRLSCAASGFNIKDTYIHWVRQAPGKCLEWVAEIYPTNGYTEYADSVKGRFTISADTSKNTAYLQMNSLRAEDTAVYYCSRWGGDGFYAMDYWGQGTLVTVSSDKTHTCPPCPAPEAAGGPSVFLFPPKPKDTLMISRTPEVTCVVVDVSHEDPEVKFNWYVDGVEVHNAKTKPREEQYNSTYRVVSVLTVLHQDWLNGKEYKCKVSNKALPAPIEKTISKAKGQPREPQVCTLPPSRDELTKNQVSLSCAVKGFYPSDIAVEWESNGQPENNYKTTPPVLDSDGSFFLVSKLTVDKSRWQQGNVFSCSVMHEALHNRFTQKSLSLSPG
light 2: not shown
B2: anti-CD3ε × anti-CD123-dsTrasKO2 (ID 37, alternative anti-CD3ε binding domain) (bispecific antibody)
light 1: DIVMTQTPLSLSVTPGQPASISCKSSQSLVHENLQTYLSWYLQKPGQSPQSLIYKVSNRFSGVPDRFSGSGSGTDFTLKISRVEAEDVGVYYCGQGTQYPFTFGSGTKVEIKRTVAAPSVFIFPPSDEQLKSGTASVVCLLNNFYPREAKVQWKVDNALQSGNSQESVTEQDSKDSTYSLSSTLTLSKADYEKHKVYACEVTHQGLSSPVTKSFNRGEC
heavy 1: not shown
heavy 2: B1 heavy 2
light 2: not shown
notes: also called anti-CD3ε × CD123-dsTrasKO2
B3: anti-TNP × anti-CD123-dsTrasKO2 Negative control (ID 43) (bispecific antibody, human IgG1, kappa, L234A L235A)
light 1: DVVMTQSPLSLPVTLGQPASISCRSSQSLVHSIGNTYLHWYQQRPGQSPRLLIYKVSNRFSGVPDRFSGSGSGTDFTLKISRVEAEDVGVYYCSQSTHVPFTFGQGTKLEIKRTVAAPSVFIFPPSDEQLKSGTASVVCLLNNFYPREAKVQWKVDNALQSGNSQESVTEQDSKDSTYSLSSTLTLSKADYEKHKVYACEVTHQGLSSPVTKSFNRGEC
heavy 1: not shown
heavy 2: B1 heavy 2
light 2: not shown
B4: anti-CD3ε × anti-CD123 Wild Type (ID 33) (bispecific antibody)
light 1: not shown
heavy 1: not shown
heavy 2: EVQLQQSGPELVKPGASVKMSCKASGYTFTDYYMKWVKQSHGKSLEWIGDIIPSNGATFYNQKFKGKATLTVDRSSSTAYMHLNSLTSEDSAVYYCTRSHLLRASWFAYWGQGTLVTVSAASTKGPSVFPLAPSSKSTSGGTAALGCLVKDYFPEPVTVSWNSGALTSGVHTFPAVLQSSGLYSLSSVVTVPSSSLGTQTYICNVNHKPSNTKVDKKVEPKSCDKTHTCPPCPAPEAAGGPSVFLFPPKPKDTLMISRTPEVTCVVVDVSHEDPEVKFNWYVDGVEVHNAKTKPREEQYNSTYRVVSVLTVLHQDWLNGKEYKCKVSNKALPAPIEKTISKAKGQPREPQVCTLPPSRDELTKNQVSLSCAVKGFYPSDIAVEWESNGQPENNYKTTPPVLDSDGSFFLVSKLTVDKSRWQQGNVFSCSVMHEALHNRFTQKSLSLSPG
light 2: DFVMTQSPSSLTVTAGEKVTMSCKSSQSLLNSGNQKNYLTWYLQKPGQPPKLLIYWASTRESGVPDRFTGSGSGTDFTLTISSVQAEDLAVYYCQNDYSYPYTFGGGTKLEIKRTVAAPSVFIFPPSDEQLKSGTASVVCLLNNFYPREAKVQWKVDNALQSGNSQESVTEQDSKDSTYSLSSTLTLSKADYEKHKVYACEVTHQGLSSPVTKSFNRGEC
notes: Wild type bispecific IgG (first anti-CD3ε arm)
B5: anti-CD3ε-dsTrasKO2 × anti-CD123 (ID 35) (bispecific antibody)
light 1: not shown
heavy 1: not shown
heavy 2: B4 heavy 2
light 2: B4 light 2
notes: CD3ε arm is the pseudoFab (dsTrasKO2); also called anti-CD3E-dsTrasKO2 × anti-CD123
B6: anti-CD3ε × anti-CD123 Wild Type (ID 36, alternative anti-CD3ε binding domain) (bispecific antibody)
light 1: B2 light 1
heavy 1: not shown
heavy 2: B4 heavy 2
light 2: B4 light 2
B7: anti-TNP × anti-CD123 Negative control Wild Type (ID 42) (bispecific antibody)
light 1: B3 light 1
heavy 1: not shown
heavy 2: B4 heavy 2
light 2: B4 light 2
B8: anti-TNP-dsTrasKO2 × anti-CD123 Negative control (ID 44) (bispecific antibody, human IgG1, kappa, L234A L235A)
light 1: not shown
heavy 1: not shown
heavy 2: B4 heavy 2
light 2: B4 light 2

Each binder was assayed against T1, human CD123-Fc-His fusion protein … (assay: SPR, Biacore 8K; CD123-Fc-His captured by anti-His, antibody as analyte, 1:1 Langmuir fit).
Experimental: Binding of antigens to the antibody constructs was measured using surface plasmon resonance (SPR) with a BIAcore 8K instrument (GE Healthcare) with HBS-EP+ buffer (GE Healthcare). For binding kinetics and affinity determination human CD3εδ-Fc-His and human CD123-Fc-His fusion proteins (both from internal source) were used as antigens. The anti-His capture antibody (His capture kit, GE Life Sciences) was immobilized via primary amine groups (11000 RU) on a research grade CM5 chip (GE Life Sciences) using standard procedures. Antigens were captured by the anti-His capture chip surface at a flow rate of 10 μL/min for 90 sec to reach antibody binding levels between 10 and 30 RU. […] Dissociation was measured at 30 μL/min by injection of HBS-EP+ buffer for 1200 sec. The chip surface was regenerated by inject of regeneration buffer (His capture kit, GE Life Sciences). Sensorgrams were double referenced with a blank chip surface and H BS-EP+ buffer blanks. Data were fitted with a 1:1 Langmuir binding model for determination of kinetic and affinity constants ka, kd and KD using Biacore 8K Evaluation software v1.11.7442 (GE Healthcare).

Binder | Kd [nM]
B1 | 0.239
B2 | 0.386
B3 | 0.546
B4 | 0.212
B5 | 0.257
B6 | 0.352
B7 | 0.231
B8 | 0.287
